The target in assay [1] is T1, human TNFα in complex with compound (1) (human, UniProt P01375 77-233).
T1 construct: also called human TNFα +compound (1); TNFα-compound (1) complex
In words: SPR BIAcore T200; IgG captured on anti-mouse Fc; TNFα 50 nM + 2 µM compound injected.

The target of assay [2] is T2, human TNFα in complex with compound (2) (human, UniProt P01375 77-233).
T2 construct: also called human TNFα +compound (2)
The assay is described as above.

The target in assay [3] is T3, human TNFα without compound (apo) (human, UniProt P01375 77-233).
T3 construct: In-house human TNFα; No compound, DMSO only; also called apo human TNFα; hTNF
In words: SPR BIAcore T200; IgG captured on anti-mouse Fc; apo TNFα 50 nM injected.

In assay [4] the target is T1, human TNFα in complex with compound (1). Put plainly: SPR BIAcore T200; IgG captured on anti-mouse Fc.
Assay [5] deals with T2, human TNFα in complex with compound (2). Put plainly: SPR BIAcore T200; IgG captured on anti-mouse Fc.
In assay [6] the target is T1, human TNFα in complex with compound (1). In words: size exclusion chromatography (HPLC), molar excess of Fab.

T1 sequence (P01375 77-233 limits assumed, one chain of several): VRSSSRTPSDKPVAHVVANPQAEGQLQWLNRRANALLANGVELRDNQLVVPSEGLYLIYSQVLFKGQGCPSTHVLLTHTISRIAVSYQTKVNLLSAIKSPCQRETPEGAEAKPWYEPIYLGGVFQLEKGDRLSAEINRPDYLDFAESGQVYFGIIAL
T3 sequence (P01375 77-233 limits assumed): as the sequence (P01375 77-233 limits assumed, one chain of several) above
T2 sequence (P01375 77-233 limits assumed, one chain of several): as above

B1: CA185_01979 mouse IgG1 (antibody, V domains shown)
VH: EVHLVESGPGLVKPSQSLSLTCSVTGYSITNSYWDWIRKFPGNKMEWMGYINYSGSTGYNPSLKSRISISRDTSNNQFFLQLNSITTEDTATYYCARGTYGYNAYHFDYWGRGVMVTVSS
VL: DIQMTQSPASLSASLEEIVTITCQASQDIGNWLSWYQQKPGKSPHLLIYGTTSLADGVPSRFSGSRSGTQYSLKISGLQVADIGIYVCLQAYSTPFTFGSGTKLEIKR
notes: also called CA185_01979.0; VR0001842
Take B1: the Kd in assay [1] amounted to 0.034 nM; in assay [2] it was 0.058 nM; in assay [3], 6.7 nM. Besides, the results for the koff in assay [1], in assay [2] and in assay [3] were 1.6e-05 s⁻¹, 3.3e-05 s⁻¹ and 0.00071 s⁻¹, respectively. In addition, the figures for the kon in assay [1], in assay [2] and in assay [3] were 470000 M⁻¹ s⁻¹, 570000 M⁻¹ s⁻¹ and 110000 M⁻¹ s⁻¹, respectively. For the same molecule, the “log selective binding for compound-distorted against apo human TNFα” value in assay [4] and in assay [5] was > 2 log in each case.

B2: CA185_01979 mFab (no hinge) (Fab, V domains shown)
VH: B1 VH
VL: B1 VL
notes: also called CA185_01979 Fab
With B2, the “stoichiometry (Fab : TNFα trimer)” value in assay [6] was determined as 1 Fab per TNFα trimer.

Values taken from US20180172701A1 (published 2018).
